The target in this assay is monkey CADM3 (cynomolgus monkey). Kind of assay: flow cytometry, 10 ug/mL, monkey CADM3/Expi293F vs parent Expi293F cells. For orientation: A flow cytometer gives signals particle by particle.
Sequence of monkey CADM3 (cynomolgus monkey) (Q8N126 25-398 S206N limits assumed, form in doubt): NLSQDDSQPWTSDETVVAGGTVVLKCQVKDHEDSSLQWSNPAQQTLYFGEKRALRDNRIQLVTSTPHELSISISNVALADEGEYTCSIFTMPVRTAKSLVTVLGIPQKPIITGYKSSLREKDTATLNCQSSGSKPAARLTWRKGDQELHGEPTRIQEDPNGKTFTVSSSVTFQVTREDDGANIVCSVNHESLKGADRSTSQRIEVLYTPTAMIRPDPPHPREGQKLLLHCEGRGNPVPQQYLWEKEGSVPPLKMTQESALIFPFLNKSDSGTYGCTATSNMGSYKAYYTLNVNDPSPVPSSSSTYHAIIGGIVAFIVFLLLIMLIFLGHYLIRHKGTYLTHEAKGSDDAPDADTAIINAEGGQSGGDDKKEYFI

B1: iCADM3_3R1-L5 VHH-hG4PE(R409K) (Fc fusion, not shown: a dimerising Fc or GST)
chain: QVQLVESGGGLVQAGGSLRLSCAASGSIVSVNAMGWYRQAPGKQRELVATITSGGSTNYADSAKGRFTISRDNAKNTMYLQMNSLKPEDTAVYYCNGEFWSRRDTRPPGVVNYWGQGTQVTVSS
As to B1, the Mean fluorescence intensity ratio worked out at 26.6.

B2: CADM3102 scFv-hG4PE (Fc fusion)
VH: QMQLVQSGAEVKKPGSSVKVSCKASGGTFSSYAISWVRQAPGQGLEWMGGIIPMSGTANYAQKFQGRVTITADESTSTAYMELSSLRSEDTAVYYCARVEESGWYDHYHGMDVWGQGTTVTVSS
VL: DVVMTQSPLSLPVTPGEPASISCTSSQSLLYSNGFNYLDWYLQKPGQSPQLLIYLGSNRASGVPDRFSGSGSGTDFTLKISRVEAEDVGVYYCMQALTTHPTFGGGTKVDIK
With B2, the Mean fluorescence intensity ratio came out at 51.5.

B3: iCADM3_3R1-L8 VHH-hG4PE(R409K) (Fc fusion, not shown: a dimerising Fc or GST)
chain: QVQLVESGGGLVQPGGSLRLSCAASGRTFSNYARGWFRQAPGKEREFVAAIDYSGGSTNYADSAKGRFTISRDNAKNTVYLQMNSLKPGDTAVYYCAAPASRRPSWDADGYDYWGQGTQVTVSS
Regarding B3, the Mean fluorescence intensity ratio was determined as 6.91.

B4: iCADM3_3R1-L11 VHH-hG4PE(R409K) (Fc fusion, not shown: a dimerising Fc or GST)
chain: QVQLVESGGGLVQAGGSLRLSCAASGSIFSFNAMGWYRQAPGKQRGLVAVITSGGYTNYADSVKGRFTITRDNAKNTVYLQMNSLKPEDTAVYYCNAEGVYSDYVIMNYWGQGTQVTVSS
On to B4, for which the Mean fluorescence intensity ratio amounted to 35.3.

B5: iCADM3_3R1-L10 VHH-hG4PE(R409K) (Fc fusion, not shown: a dimerising Fc or GST)
chain: QVQLVESGGGLVQAGGSLRLSCAASGSIFSIHAMGWYRQAPGKQRELVATVTSGGSTNYADSVKGRFTISRDNAKNTVYLQMNSLKPEDTAVYYCNAETPYYSSTYYTNYWGQGTQVTVSS
In the case of B5, the Mean fluorescence intensity ratio amounted to 36.5.

B6: anti-AVM antibody (antibody, V domains shown)
VH: EVQLVESGGGLVQPGRSLKLSCAASGFTFSNYAMAWVRRAPTKGLEWVASISNGGGNTYYRDSVKGRFTISRDDAKNTLYLQMDSLRSEDTATYYCARHGNYIYYGSFFDYWGQGVMVTVSS
VL: QFVLSQPNSVSTNLGSTVKLSCKRSTGNIGSNYVSWYQQHEGRSPTTMIYRDDKRPDGVPDRFSGSIDRSSDSALLTINNVQTEDEADYFCQSYSSGINIFGGGTKLTVLG
Regarding B6, the Mean fluorescence intensity ratio was 1.02.

B7: CADM301 scFv-hG4PE (Fc fusion)
VH: QVQLVQSGAEVRRPGTSVKVSCKASGYSFTSYDINWVRLATGQGLEWMGWMNPNTGDTGSPQKFQDRVTMTRDISTGTAYLELRGLKSEDTAIYYCARGFLVTAYTAEFFPHWGQGTLVTVSS
VL: SYVLTQPPSVSVAPGKTARLTCGGNNIGSKSVHWYQQRPGQAPVLVINYDSDRPSGIPERFSGSNSENTATLTISRVEAGDEADYYCQVWDSGSDHVVFGGGTQLIIL
In the case of B7, the Mean fluorescence intensity ratio stood at 5.72.

Values taken from patent US20210147541A1.
